Results: IntAct's records for PubMed 25239945

B1: Signal peptide peptidase (Homo sapiens), Q8TCT9 (parent)
chain: MDSALSDPHNGSAEAGGPTNSTTRPPSTPEGIALAYGSLLLMALLPIFFGALRSVRCARGKNASDMPETITSRDAARFPIIASCTLLGLYLFFKIFSQEYINLLLSMYFFVLGILALSHTISPFMNKFFPASFPNRQYQLLFTQGSGENKEEIINYEFDTKDLVCLGLSSIVGVWYLLRKHWIANNLFGLAFSLNGVELLHLNNVSTGCILLGGLFIYDVFWVFGTNVMVTVAKSFEAPIKLVFPQDLLEKGLEANNFAMLGLGDVVIPGIFIALLLRFDISLKKNTHTYFYTSFAAYIFGLGLTIFIMHIFKHAQPALLYLVPACIGFPVLVALAKGEVTEMFSYEESNPKDPAAVTESKEGTEASASKGLEKKEK
partner: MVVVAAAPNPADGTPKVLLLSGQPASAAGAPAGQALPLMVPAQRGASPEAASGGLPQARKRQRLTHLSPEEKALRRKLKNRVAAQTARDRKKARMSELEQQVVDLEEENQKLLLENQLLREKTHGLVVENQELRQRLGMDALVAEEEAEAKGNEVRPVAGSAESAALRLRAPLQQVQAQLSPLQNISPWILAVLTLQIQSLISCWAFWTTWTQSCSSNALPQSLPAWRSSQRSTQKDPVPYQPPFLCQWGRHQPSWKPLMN

Variants of: B1
Settings: with XBP1, P17861-1

| Variant | effect of a mutation on the interaction |
| --- | --- |
| D265A | increasing interaction |
